Test [1] concerns the target AviTag-238D2 (biotinylated, c-myc-tagged 238D2). The experiment in a line: BLI. In general terms: Biolayer interferometry detects binding as a change in optical thickness at a sensor tip.
In test [2] the target is AviTag-3SM5 (biotinylated, c-myc-tagged 3SM5 VH). The experiment in a line: BLI.
Test [3] deals with T1, SNAP-tagged hCXCR4 labelled with Lumi4-Terbium (human, UniProt P61073 1-352, Lumi4-Terbium on the SNAP tag).
T1 construct: also called SNAP-CXCR4; Terbium-linked SNAP-tagged CXCR4
T1 sequence (P61073 whole entry): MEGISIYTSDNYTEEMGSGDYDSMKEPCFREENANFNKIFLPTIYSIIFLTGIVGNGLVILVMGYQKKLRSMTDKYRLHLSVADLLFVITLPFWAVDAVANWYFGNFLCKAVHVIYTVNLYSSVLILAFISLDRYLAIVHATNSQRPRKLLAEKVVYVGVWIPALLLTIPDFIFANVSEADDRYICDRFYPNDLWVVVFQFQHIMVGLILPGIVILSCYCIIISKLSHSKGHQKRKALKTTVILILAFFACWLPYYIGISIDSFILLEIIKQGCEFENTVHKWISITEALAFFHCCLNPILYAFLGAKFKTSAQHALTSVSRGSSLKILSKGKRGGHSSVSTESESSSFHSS
The experiment in a line: AlphaScreen or HTRF. Conditions: one partner purified. (In Alpha technology, singlet oxygen from a donor bead excites a nearby acceptor bead.)

The values below come from article PMC9456297 (International Journal of Molecular Sciences, 2022).

For “Influenza A H1N1 (A/SOLOMON ISLANDS/3/2006): hemagglutinin H1 as a fusion protein with the neuraminidase N1”, the Kd in test [1] was determined as 119 nM; in test [2], 236 nM.

B1: 4N1H VHH (bacterially produced, c-myc- and His-tagged) (VHH)
VHH: EVQLQESGGGLVQAGASLKLSCAASGRTFSSYAMGWFRQAPGKEREFVAAISRSGGDTKYADSVKGRFAISRDNDKNTVWLRMNSLKPEDTAVYYCAATTYASLSDTYIGEHIYDDWGQGTQVTVSS
notes: also called cAB-F11N
In turn, B1 yielded an IC50 in test [3] of 39.8 nM.

B2: 3SM5 VH domain (bacterially produced, c-myc- and His-tagged) (domain or fragment)
VH: MEVQLVQSGAEVKKPGASVKVSCKASGYTFTDYHINWVRQAPGQGLEWMGWIHPNSGDTNYAQKFQGWVTMTRDTAISTAYMEVNGLKSDDTAVYYCARGGLEPRSVDYYYYGMDVWGQGTTVTVSS
notes: also called VH of CH65
B2 yielded an IC50 in test [3] of 69.1 nM.

B3: 238D2 nanobody (bacterially produced, c-myc- and His-tagged) (VHH)
VHH: EVQLVESGGGLVQTGGSLRLSCAASGFTFSSYAMSWVRQAPGKGLEWVSGIKSSGDSTRYAGSVKGRFTISRDNAKNMLYLQMYSLKPEDTAVYYCAKSRVSRTGLYTYDNRGQGTQVTVSS
notes: also called anti-CXCR4 Nb
Turning to B3, the IC50 in test [3] was determined as 58.4 nM.

In general, Kd refers to the constant that tells how readily two partners part at equilibrium. Low values mean higher affinity, high ones lower affinity. Broadly, the IC50 is the midpoint of a concentration-inhibition curve. Low values mean greater potency, high ones weaker potency.
